Laboratory results from PMC3719020.

Assays:
[1] = target: 60S-nascent chain-tRNA complex (β-VHP) (not stated | rabbit (endogenous in reticulocyte lysate)) (UniProt P60468)
[2] = target: β-VHP ribosome-nascent chain complexes (RNCs) (not stated | rabbit (endogenous in reticulocyte lysate)) (UniProt P60468)
[3] = target: Pelota (UniProt Q9BRX2); experiment: pull-down; 800 μl RRL incubated with 200 μl of Pelota resin (Pelota immobilized via CnBr); unconjugated quenched CnBr resin as control; depleted lysate blotted for Hbs1
Sequence of UniProt Q9BRX2 (Q9BRX2 whole entry): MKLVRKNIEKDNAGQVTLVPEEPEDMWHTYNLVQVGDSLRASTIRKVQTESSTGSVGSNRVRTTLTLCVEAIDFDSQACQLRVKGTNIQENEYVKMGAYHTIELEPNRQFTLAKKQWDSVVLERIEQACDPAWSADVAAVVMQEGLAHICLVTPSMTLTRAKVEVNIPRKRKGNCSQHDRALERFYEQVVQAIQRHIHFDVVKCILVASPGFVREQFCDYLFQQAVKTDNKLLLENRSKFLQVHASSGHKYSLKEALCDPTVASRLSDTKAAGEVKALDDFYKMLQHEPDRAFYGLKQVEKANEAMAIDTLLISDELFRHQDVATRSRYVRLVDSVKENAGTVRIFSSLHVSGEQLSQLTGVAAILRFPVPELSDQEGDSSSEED

| Substance | nascent chain ubiquitination of sucrose gradient fractions incubated with E1, E2, ubiquitin and ATP; 60S-nascent chain complexes against 80S RNCs [1] [fold] | inhibition of β-VHP nascent chain ubiquitination by the GTPase mutant Hbs1 H348A (Hbs1-DN) added to the translation reaction [2] [%] | inhibition of β-VHP nascent chain ubiquitination by the GTPase mutant Hbs1 V269G added to the translation reaction [2] [%] | percent of Hbs1 depleted from the lysate by the Pelota resin [3] [%] |
| --- | --- | --- | --- | --- |
| Listerin (enzyme) | 10 | 90 | 60 | – |
| Hbs1 (enzyme) | – | – | – | 80 to 90 |
